Data reported in patent publication US20220396617A1.

Legend:
TIGIT (ECD)-hFc (human) [1] = target: TIGIT (ECD)-hFc (human) (UniProt Q495A1); assay: FACS blocking assay: antibody preincubated with TIGIT (ECD)-hFc, binding to A549/human PVR cells
TIGIT (ECD)-hFc (human) [2] = target: TIGIT (ECD)-hFc (human) (UniProt Q495A1); assay: FACS blocking assay (protocol of Example 7): serially diluted antibody pre-incubated with TIGIT (ECD)-hFc, then binding of TIGIT (ECD)-hFc to A549/human PVR cells measured; blocked ligand: human PVR [A]
TIGIT (ECD)-hFc (human) [3] = target: TIGIT (ECD)-hFc (human) (UniProt Q495A1); assay: FACS blocking assay (protocol of Example 7): serially diluted antibody pre-incubated with TIGIT (ECD)-hFc, then binding of TIGIT (ECD)-hFc to A549/human PVR cells measured; blocked ligand: human PVR [B]
[4] = target: human TIGIT (ECD)-his (human) (UniProt Q495A1); assay: ELISA, coated human TIGIT (ECD)-his (table head says FACS)
Chain of human TIGIT (ECD)-his (human) (Q495A1 22-141): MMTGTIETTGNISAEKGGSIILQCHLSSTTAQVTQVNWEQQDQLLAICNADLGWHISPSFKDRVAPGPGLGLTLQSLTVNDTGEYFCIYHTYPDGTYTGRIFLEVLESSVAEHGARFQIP

TIGIT (ECD)-hFc (human) [5] = target: TIGIT (ECD)-hFc (human) (UniProt Q495A1); assay: FACS blocking assay (protocol of Example 7): serially diluted antibody pre-incubated with TIGIT (ECD)-hFc, then binding of TIGIT (ECD)-hFc to A549/human PVR cells measured; blocked ligand: human PVR
[6] = target: human TIGIT (ECD)-his (human) (UniProt Q495A1); assay: SPR (BIAcore 8K), human TIGIT (ECD)-his on CM5 chip, antibody injected

Chain of TIGIT (ECD)-hFc (human) (Q495A1 22-141): as above

EC50 (TIGIT (ECD)-hFc (human) [1]): 42 nM | IC50 (read off the curve) (TIGIT (ECD)-hFc (human) [2]): 4 mg/L | IC50 (read off the curve) (TIGIT (ECD)-hFc (human) [3]): 5 mg/L | EC50 [4]: 0.16 nM | IC50 (read off the curve) (TIGIT (ECD)-hFc (human) [5]): 3 mg/L | Kd [6]: 0.00149 nM
Substance: Tiragolumab (antibody)
